These results are taken from patent US5861377A, “Antistasin type serine protease inhibitors” (Novartis AG, priority 1994, dated 1999).

Where only a bound is given, the exact number is not on record here.

The target of data set [1] is T1, Thrombin (Homo sapiens, UniProt P00734).
T1 construct: the other proteinases tested including human α-thrombin and factor Xa
The experiment in a line: Inhibition of amidolytic activity of serine proteinases: thrombin. On the set-up: effect on proteinase activity: dose or concentration left out as unconfirmed. The class given is biochemical. As to the method:
(§1) To determine the specificity of hirustasin, its effect on the amidolytic activity of various serine proteinases (see Tab. 3) is determined. Therefore, proteinases are incubated with the inhibitor […] for 15 and for 30 min, and the residual enzyme activities are measured after addition of a suitable substrate. Equilibrium dissociation constants (Ki) for the complexes of hirustasin with individual proteases are determined essentially as described by Bieth (Bull. Europ. Physopat. Resp. (1980), 16, 183-195). Briefly, increasing concentrations of the inhibitor are incubated with a constant concentration of the enzyme; the time necessary to reach equilibration of the enzyme-inhibitor complex is determined for each protease in preliminary experiments. Substrate is then added and the residual enzyme activity measured. Apparent Ki -values are calculated by fitting the steady state velocities to the equation for tight binding inhibitors (Morrison, Biochem. Biophys. Acta (1969), 185, 269-286) using non-linear regression analysis.

Data set [2] relates to blood coagulation cascade. In words: Blood coagulation cascade in vitro (general statement). As for the experimental part:
(§2) To determine whether hirustasin inhibits the blood coagulation in vitro, its effect on the prothrombin time and the partial thromboplastin time is measured using an Amelung KC10 coagulometer (Lemgo, Germany) and the reagent sets from Behringwerke AG (Marburg, Germany) according to the guidelines of the manufacturers.

Data set [3] has as its target Pancreatic elastase (Sus scrofa, UniProt P00772). In words: Inhibition of amidolytic activity of serine proteinases: pancreatic elastase. The class given is biochemical. The settings on record: porcine pancreatic elastase; inhibitor 1.3 mM. As to the method:
(§3) To determine the specificity of hirustasin, its effect on the amidolytic activity of various serine proteinases (see Tab. 3) is determined. Therefore, proteinases are incubated with the inhibitor (1.3 mM) for 15 and for 30 min, and the residual enzyme activities are measured after addition of a suitable substrate. Equilibrium dissociation constants (Ki) for the complexes of hirustasin with individual proteases are determined essentially as described by Bieth (Bull. Europ. Physopat. Resp. (1980), 16, 183-195). Briefly, increasing concentrations of the inhibitor are incubated with a constant concentration of the enzyme; the time necessary to reach equilibration of the enzyme-inhibitor complex is determined for each protease in preliminary experiments. Substrate is then added and the residual enzyme activity measured. Apparent Ki -values are calculated by fitting the steady state velocities to the equation for tight binding inhibitors (Morrison, Biochem. Biophys. Acta (1969), 185, 269-286) using non-linear regression analysis.

In data set [4] the target is Subtilisin. In words: Inhibition of amidolytic activity of serine proteinases: subtilisin. The class given is biochemical. The note with it: Bact. subt. subtilisin; inhibitor 1.3 mM. As for the experimental part: as §3
The target of data set [5] is Chymase. The experiment in a line: Inhibition of amidolytic activity of serine proteinases: chymase. The class given is biochemical. The note with it: porcine chymase; inhibitor 1.3 mM. As for the experimental part: as §3
Data set [6] relates to prothrombin time. In words: In vitro blood coagulation: prothrombin time (Quick). As to the method: as §2
Data set [7] has as its system partial thromboplastin time. In words: In vitro blood coagulation: partial thromboplastin time. As to the method:
as §2

In data set [8] the target is Factor Xa (Homo sapiens, UniProt P00742). The experiment in a line: Inhibition of amidolytic activity of serine proteinases: factor Xa. On the set-up: effect on proteinase activity: dose or concentration left out as unconfirmed. The class given is biochemical. As for the experimental part:
as §1

For data set [9], the target named is Urokinase (Homo sapiens, UniProt P00749). The experiment in a line: Inhibition of amidolytic activity of serine proteinases: urokinase. The class given is biochemical. The note with it: inhibitor 1.3 mM. As to the method:
as §3

The target of data set [10] is Plasma kallikrein (Homo sapiens, UniProt P03952). In words: Inhibition of amidolytic activity of serine proteinases: plasma kallikrein. The class given is biochemical. The note with it: inhibitor 1.3 mM. As for the experimental part: as §3
Data set [11] addresses T2, Leukocyte elastase (Homo sapiens, UniProt P08246).
T2 sequence (P08246 30-267): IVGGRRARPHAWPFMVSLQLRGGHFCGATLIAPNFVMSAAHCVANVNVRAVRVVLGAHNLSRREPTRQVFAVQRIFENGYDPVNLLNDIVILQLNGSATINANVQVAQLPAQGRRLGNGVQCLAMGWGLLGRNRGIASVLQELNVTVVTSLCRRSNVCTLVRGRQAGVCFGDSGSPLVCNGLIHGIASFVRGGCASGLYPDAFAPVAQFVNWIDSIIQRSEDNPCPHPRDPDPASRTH
In words: Inhibition of amidolytic activity of serine proteinases: leukocyte elastase. The note with it: inhibitor 1.3 mM. The class given is biochemical. As to the method: as §3

For data set [12], the target named is chymotrypsin (Bos taurus, UniProt P00766). The experiment in a line: Inhibitory activity during purification: amidolytic activity of chymotrypsin. The class given is biochemical. The note with it: chymotrypsin inhibition; fraction of the isolation step. An excerpt: (§4) One inhibition unit (IU) is defined as the amount of inhibitor which reduces the substrate hydrolysis by 1 mmol per min.

Data set [13] has as its target T3, trypsin (Bos taurus, UniProt P00760).
T3 sequence (P00760 24-246): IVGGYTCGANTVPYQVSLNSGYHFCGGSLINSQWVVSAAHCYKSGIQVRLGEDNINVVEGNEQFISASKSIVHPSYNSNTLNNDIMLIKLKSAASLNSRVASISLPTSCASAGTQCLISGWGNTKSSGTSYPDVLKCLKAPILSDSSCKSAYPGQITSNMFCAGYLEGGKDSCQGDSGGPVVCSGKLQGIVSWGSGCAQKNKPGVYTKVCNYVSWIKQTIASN
The experiment in a line: Inhibitory activity during purification: amidolytic activity of trypsin. The class given is biochemical. The note with it: trypsin inhibition; fraction of the isolation step. As for the experimental part:
During the purification procedure inhibitory activity is assayed by measuring the inhibition of the amidolytic activities of trypsin and chymotrypsin. Samples are incubated with trypsin (225 nM) in 50 mM Tris/HCl (pH 7.8), 0.1% (mass/vol) Triton X-100, for 12 min at 25° C. The assay is started by addition of the substrate benzoyl-L-argininep-nitroanilide (0.4 mM, final concentration). The released nitroaniline is monitored photometrically at 405 nm for 3.5 min using an UVIKON 930® photometer (Kontron; Eching, Germany).
as §4

Sequence of Factor Xa (P00742 235-488 limits assumed): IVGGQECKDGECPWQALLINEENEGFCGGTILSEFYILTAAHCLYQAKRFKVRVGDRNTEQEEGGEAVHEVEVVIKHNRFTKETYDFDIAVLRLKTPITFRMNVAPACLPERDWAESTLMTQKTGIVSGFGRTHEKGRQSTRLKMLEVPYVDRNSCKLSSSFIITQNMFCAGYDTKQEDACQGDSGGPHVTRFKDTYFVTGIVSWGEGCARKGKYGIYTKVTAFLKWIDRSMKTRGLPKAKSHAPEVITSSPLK
Sequence of Factor Xa (P00742 41-179 partner limits assumed): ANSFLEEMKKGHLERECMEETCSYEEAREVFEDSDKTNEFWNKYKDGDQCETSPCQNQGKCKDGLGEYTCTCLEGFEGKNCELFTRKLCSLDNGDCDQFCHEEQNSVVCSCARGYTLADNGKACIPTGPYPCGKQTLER
Sequence of Plasma kallikrein (P03952 391-638 limits assumed): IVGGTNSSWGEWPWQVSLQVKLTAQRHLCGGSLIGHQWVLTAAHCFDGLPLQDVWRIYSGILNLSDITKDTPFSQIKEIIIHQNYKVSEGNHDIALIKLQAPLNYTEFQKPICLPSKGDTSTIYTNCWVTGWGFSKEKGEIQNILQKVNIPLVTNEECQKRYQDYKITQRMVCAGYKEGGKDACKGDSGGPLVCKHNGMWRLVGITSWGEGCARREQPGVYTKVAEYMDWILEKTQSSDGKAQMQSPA
Sequence of Plasma kallikrein (P03952 20-390 partner limits assumed): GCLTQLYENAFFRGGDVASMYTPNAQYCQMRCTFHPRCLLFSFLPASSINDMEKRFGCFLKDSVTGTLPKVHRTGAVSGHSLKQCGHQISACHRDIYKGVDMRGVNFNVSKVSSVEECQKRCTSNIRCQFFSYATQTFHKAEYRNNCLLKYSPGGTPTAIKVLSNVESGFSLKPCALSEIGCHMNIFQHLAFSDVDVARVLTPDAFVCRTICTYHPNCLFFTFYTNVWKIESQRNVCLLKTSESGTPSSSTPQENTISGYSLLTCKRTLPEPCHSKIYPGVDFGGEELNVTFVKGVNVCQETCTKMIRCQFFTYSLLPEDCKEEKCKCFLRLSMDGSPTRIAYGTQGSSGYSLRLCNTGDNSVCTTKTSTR
Sequence of Pancreatic elastase (P00772 27-266): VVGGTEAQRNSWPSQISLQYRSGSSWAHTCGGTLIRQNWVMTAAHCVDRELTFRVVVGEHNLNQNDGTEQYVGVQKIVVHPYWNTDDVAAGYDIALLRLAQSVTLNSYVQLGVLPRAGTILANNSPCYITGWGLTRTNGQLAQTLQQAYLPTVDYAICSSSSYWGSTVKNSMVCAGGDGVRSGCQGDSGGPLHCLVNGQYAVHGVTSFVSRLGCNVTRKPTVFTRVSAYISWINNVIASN

In the case of “Hirustasin: polypeptide of SEQ ID NO:1, antistasin-type serine proteinase inhibitor isolated from the medical leech Hirudo medicinalis (TQGNTCGGETCSAAQVCLKGKCVCNEVHCRIRCKYGLKKDENGCEYPCSCAKASQ)”, the Ki was greater than 1300 nM in [1] (human thrombin, inhibitor 1.3 mM); greater than 1300 nM in data set [3]; greater than 1300 nM in [4]; greater than 1300 nM in [5]; greater than 1300 nM in data set [8] (human factor Xa, inhibitor 1.3 mM); greater than 1300 nM in data set [9]. Also, the Ki in data set [10] and in data set [11] was greater than 1300 nM in each case. Moreover, the “effect on proteinase activity” value was “no effect” in [1] (human α-thrombin, highest concentration used) and “no effect” in data set [8] (factor Xa, highest concentration used). Besides, in data set [2], the “effect on blood coagulation cascade in vitro” value is reported as “neither affects”. The “effect on prothrombin time” value in data set [6] (concentration of 1.3 mM) is “no significant effect”. In addition, in [6] (hirustasin 1.3 mM, buffer control 79%), the Quick was 80%. The “effect on partial thromboplastin time” value in data set [7] (concentration of 1.3 mM) is recorded as “no significant effect”. In [7] (hirustasin 1.3 mM, buffer control 47.3 s), the “Partial Thromboplastin Time” value is 47.9 s. Further, in [8] (isolated factor Xa), the “effect on catalytic activity of isolated factor Xa” value was “neither affects”.

Regarding “Mono S ®: pooled Mono S fractions, the finally isolated hirustasin (TQGNTCGGETCSAAQVCLKGKCVCNEVHCRIRCKYGLKKDENGCEYPCSCAKASQ; UniProt P80302 1-55, looked up)”, the “Chymotrypsin SA [IU/mg] (specific activity)” value in [12] was 0.15 IU/mg. In addition, in [13], the “Trypsin SA [IU/mg] (specific activity)” value came out at 2.7 IU/mg.
